Laboratory results as given in the supplement of paper PMC10065799, “High-throughput profiling of sequence recognition by tyrosine kinases and SH2 domains using bacterial peptide display” (eLife, 2023).

Experiments:
AncSZ = assay: phosphorylation enrichment, bacterial display (enrichment ratio); higher = better substrate or ligand; peptides without Tyr show the background
Hck = Hck (UniProt P08631); assay: as above
MERTK = MERTK (UniProt Q12866); assay: as above
EPHB2 = EPHB2 (UniProt P29323); assay: as above
Fyn = Fyn (UniProt P06241); assay: as above
Sequence of Fyn (P06241 whole entry, looked up): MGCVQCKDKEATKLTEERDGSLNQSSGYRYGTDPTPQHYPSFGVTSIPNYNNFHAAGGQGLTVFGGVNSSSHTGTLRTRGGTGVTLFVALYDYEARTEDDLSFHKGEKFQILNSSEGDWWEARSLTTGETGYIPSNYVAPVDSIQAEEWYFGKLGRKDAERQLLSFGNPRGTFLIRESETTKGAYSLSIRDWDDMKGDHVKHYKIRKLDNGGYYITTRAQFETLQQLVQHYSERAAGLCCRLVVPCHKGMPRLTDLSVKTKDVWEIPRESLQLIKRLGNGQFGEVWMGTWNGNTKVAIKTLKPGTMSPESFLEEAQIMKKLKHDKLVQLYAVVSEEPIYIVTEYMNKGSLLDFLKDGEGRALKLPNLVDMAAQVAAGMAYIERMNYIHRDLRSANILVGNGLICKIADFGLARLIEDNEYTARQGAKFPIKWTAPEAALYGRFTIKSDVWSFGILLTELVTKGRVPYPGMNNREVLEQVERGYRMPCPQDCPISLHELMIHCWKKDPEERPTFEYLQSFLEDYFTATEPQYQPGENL

FGFR1 = FGFR1 (UniProt P11362); assay: as above
Fes = Fes (UniProt P07332); assay: as above
Sequence of Fes (P07332 whole entry, looked up): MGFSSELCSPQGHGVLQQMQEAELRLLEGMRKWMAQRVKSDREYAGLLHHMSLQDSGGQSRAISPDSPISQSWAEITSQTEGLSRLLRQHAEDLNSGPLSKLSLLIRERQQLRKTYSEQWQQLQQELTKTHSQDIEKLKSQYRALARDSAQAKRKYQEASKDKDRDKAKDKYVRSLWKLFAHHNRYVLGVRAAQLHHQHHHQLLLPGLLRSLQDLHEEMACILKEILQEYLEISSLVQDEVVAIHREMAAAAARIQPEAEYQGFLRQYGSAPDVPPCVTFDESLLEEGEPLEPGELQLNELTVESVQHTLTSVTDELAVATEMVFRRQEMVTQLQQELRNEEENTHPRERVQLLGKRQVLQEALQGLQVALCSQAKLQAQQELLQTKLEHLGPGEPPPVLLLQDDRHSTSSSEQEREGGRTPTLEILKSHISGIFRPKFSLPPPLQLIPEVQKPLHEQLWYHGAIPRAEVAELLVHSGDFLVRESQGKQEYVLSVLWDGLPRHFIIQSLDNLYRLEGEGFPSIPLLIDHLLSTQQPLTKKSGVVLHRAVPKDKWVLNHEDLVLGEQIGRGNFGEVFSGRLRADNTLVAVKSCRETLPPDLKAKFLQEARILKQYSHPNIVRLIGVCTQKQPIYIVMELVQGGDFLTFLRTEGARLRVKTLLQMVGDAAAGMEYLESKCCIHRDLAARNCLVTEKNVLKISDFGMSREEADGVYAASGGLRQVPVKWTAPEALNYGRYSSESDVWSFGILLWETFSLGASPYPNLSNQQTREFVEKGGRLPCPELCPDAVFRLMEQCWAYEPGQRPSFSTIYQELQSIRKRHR

c-Src = assay: as above
Jak2 = Jak2 (UniProt O60674); assay: as above
Sequence of Jak2 (O60674 whole entry, looked up): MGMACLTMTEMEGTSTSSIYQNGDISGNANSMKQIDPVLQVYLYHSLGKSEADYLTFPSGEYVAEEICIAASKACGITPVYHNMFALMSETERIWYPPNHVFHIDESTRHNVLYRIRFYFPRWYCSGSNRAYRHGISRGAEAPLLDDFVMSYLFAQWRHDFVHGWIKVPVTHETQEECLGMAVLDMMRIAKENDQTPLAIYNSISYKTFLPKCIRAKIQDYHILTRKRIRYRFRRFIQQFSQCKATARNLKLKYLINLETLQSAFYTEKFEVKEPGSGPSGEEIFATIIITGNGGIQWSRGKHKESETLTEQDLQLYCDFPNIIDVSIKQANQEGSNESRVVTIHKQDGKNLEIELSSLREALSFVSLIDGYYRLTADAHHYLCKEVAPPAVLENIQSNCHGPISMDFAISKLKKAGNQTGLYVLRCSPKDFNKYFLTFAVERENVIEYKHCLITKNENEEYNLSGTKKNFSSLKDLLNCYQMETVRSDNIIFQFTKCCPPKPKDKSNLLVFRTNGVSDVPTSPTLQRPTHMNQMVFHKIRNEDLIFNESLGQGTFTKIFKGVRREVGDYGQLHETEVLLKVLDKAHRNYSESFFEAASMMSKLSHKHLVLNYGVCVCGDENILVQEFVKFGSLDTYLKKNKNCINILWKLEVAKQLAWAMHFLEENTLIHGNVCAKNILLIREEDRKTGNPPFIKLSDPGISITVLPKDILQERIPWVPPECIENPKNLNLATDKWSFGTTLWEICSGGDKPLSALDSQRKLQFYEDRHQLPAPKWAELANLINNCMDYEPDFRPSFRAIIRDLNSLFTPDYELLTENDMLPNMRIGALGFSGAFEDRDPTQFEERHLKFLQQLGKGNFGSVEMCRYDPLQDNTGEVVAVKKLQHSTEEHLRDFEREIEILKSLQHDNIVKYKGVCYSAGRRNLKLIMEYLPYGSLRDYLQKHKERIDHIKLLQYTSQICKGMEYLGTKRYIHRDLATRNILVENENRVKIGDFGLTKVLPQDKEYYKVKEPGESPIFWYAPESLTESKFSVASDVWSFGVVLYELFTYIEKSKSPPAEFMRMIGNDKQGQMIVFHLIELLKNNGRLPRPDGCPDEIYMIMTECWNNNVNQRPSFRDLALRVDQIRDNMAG

c-Abl (mouse) = assay: as above
FGFR3 = FGFR3 (UniProt P22607); assay: as above
Sequence of FGFR3 (P22607 whole entry, looked up): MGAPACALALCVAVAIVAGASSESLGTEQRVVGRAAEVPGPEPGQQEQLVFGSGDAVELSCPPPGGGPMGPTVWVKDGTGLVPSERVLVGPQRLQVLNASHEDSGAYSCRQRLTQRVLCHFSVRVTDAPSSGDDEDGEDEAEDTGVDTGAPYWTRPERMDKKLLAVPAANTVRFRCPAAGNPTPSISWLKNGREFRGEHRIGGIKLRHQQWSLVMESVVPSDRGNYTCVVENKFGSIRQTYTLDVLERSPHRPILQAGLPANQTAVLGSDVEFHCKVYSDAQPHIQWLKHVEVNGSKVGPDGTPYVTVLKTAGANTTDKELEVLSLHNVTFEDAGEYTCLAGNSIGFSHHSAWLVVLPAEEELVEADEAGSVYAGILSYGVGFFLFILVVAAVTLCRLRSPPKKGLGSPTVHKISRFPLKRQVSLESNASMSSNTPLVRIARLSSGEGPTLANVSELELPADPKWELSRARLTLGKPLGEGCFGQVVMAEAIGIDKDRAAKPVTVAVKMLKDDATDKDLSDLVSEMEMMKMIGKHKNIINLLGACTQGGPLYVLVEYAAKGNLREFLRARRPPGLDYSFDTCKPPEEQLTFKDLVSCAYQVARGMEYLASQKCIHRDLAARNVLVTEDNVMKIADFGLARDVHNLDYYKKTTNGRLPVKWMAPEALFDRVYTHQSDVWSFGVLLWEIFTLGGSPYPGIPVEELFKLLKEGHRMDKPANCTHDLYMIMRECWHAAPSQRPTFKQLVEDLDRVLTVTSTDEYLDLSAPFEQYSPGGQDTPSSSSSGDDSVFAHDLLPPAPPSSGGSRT

Fer (mouse) = assay: as above
EPHB1 = EPHB1 (UniProt P54762); assay: as above
Sequence of EPHB1 (P54762 whole entry, looked up): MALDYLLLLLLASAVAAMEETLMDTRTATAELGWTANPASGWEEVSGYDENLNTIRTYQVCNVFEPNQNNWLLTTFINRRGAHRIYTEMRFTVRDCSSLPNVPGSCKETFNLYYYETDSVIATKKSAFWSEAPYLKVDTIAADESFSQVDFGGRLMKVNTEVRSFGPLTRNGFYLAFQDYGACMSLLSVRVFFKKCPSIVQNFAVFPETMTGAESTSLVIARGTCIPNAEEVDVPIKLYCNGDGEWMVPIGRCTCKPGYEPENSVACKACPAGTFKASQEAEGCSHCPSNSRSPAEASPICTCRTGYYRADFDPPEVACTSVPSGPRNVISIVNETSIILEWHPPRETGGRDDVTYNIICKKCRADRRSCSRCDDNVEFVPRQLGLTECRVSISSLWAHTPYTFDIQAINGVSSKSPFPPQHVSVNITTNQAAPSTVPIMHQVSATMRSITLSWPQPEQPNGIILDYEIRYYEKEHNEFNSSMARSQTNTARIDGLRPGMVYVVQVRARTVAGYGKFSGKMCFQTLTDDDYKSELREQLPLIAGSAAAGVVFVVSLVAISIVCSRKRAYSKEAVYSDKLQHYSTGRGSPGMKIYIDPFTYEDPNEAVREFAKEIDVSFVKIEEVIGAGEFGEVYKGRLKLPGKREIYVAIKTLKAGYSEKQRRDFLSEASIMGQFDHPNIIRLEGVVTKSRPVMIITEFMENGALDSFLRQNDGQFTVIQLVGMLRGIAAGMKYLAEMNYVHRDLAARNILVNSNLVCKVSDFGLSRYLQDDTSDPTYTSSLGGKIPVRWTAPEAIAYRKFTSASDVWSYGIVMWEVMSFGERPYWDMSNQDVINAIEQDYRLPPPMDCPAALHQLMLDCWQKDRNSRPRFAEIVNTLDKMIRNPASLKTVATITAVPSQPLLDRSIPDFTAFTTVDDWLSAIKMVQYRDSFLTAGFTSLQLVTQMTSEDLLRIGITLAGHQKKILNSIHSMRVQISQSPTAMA

SHP2-C SH2 = assay: SH2 binding enrichment of the phosphorylated peptide, bacterial display (enrichment ratio); higher = better substrate or ligand; peptides without Tyr show the background
c-Src SH2 = assay: as above
Grb2 SH2 = Grb2 SH2 (UniProt P62993); assay: as above
Sequence of Grb2 SH2 (P62993 whole entry, looked up, the tested form may be a part): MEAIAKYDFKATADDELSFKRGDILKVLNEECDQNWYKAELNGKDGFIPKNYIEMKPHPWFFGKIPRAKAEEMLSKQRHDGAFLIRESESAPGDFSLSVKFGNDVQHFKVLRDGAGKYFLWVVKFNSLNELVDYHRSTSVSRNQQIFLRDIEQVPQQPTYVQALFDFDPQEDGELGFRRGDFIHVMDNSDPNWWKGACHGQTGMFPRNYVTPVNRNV
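Wherever SH2 binding enrichment of the phosphorylated peptide, bacterial display is given: peptide library displayed on the E. coli surface as eCPX fusions, selected cells deep-sequenced, score is each peptide's frequency after selection divided by its frequency in the input.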
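Wherever phosphorylation enrichment, bacterial display is given: 11-residue human phosphosite peptides and single-mutation variants displayed on the E. coli surface, counted by deep sequencing, each peptide's frequency after selection divided by its frequency in the unselected input library; frequency after pTyr selection over input frequency; kinase dosed for 20-30% of maximal phosphorylation in three min.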

Sequence of Hck (P08631 whole entry, looked up): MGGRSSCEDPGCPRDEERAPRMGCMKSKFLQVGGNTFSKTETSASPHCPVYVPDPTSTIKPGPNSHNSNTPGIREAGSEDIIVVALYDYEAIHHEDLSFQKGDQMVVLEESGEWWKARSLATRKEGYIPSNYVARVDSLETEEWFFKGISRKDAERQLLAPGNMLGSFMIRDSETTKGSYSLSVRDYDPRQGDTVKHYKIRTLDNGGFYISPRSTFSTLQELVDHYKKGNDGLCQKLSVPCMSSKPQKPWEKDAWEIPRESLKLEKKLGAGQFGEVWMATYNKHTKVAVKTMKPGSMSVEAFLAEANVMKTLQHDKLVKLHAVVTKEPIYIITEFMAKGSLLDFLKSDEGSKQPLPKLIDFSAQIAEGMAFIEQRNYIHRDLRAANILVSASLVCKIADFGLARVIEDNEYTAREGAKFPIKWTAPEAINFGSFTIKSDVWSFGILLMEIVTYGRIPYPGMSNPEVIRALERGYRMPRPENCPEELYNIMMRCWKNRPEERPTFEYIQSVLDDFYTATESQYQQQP

Sequence	phosphorylation enrichment (AncSZ)	phosphorylation enrichment (Hck)	phosphorylation enrichment (MERTK)	phosphorylation enrichment (EPHB2)	phosphorylation enrichment (Fyn)	phosphorylation enrichment (FGFR1)	phosphorylation enrichment (Fes)	phosphorylation enrichment (c-Src)	phosphorylation enrichment (Jak2)	phosphorylation enrichment (c-Abl (mouse))	phosphorylation enrichment (FGFR3)	phosphorylation enrichment (Fer (mouse))	phosphorylation enrichment (EPHB1)	SH2 binding enrichment (SHP2-C SH2)	SH2 binding enrichment (c-Src SH2)	SH2 binding enrichment (Grb2 SH2)
EQMASYSGHSV [ITGA2B_Y319_F320S]	0.496	0.488	0.337	0.363	0.449	0.384	0.543	0.37	0.736	0.493	0.406	0.734	0.298	0.615	0.515	0.821
GRMLQYLTVND [PPFIBP2_Y663_R658G]	0.792	0.489	0.319	0.477	0.401	0.51	0.97	0.436	0.811	0.593	0.575	0.42	0.52	0.998	0.598	0.99
FGAHKYHPLPV [OAT_Y55_N54K_YF]	0.497	0.474	0.376	0.468	0.309	0.397	0.677	0.377	0.424	0.443	0.544	0.441	0.375	1.26	1.31	1.46
MKMISYETLIA [DOCK10_Y1350_T1347M]	0.784	0.581	0.485	0.566	0.468	0.634	0.948	0.421	0.888	0.65	0.629	0.467	0.659	1.24	2	0.752
GLRQSYFVEAQ [APCS_Y142_G141S]	0.717	0.505	0.543	0.491	0.457	0.612	0.825	0.453	0.596	0.48	0.697	0.378	0.532	0.726	0.681	0.686
MCVKSYTIHYS [F5_Y2153_Y2149C]	1.12	0.552	0.459	0.569	0.517	0.513	1.26	0.45	0.942	0.726	0.878	0.636	0.682	0.592	0.472	0.811
KLKNAYEECLE [MYH7_Y1488_S1491C]	1.15	0.642	0.432	0.554	0.438	0.508	1.16	0.502	0.984	0.799	0.739	0.615	0.501	0.755	2.71	1.08
ITNLLYHVVGW [GBA_Y412]	1.18	5.96	7.56	3.59	4.07	6.87	1.32	4.6	3	2.9	5.65	2.79	5.73	0.954	0.962	0.998
LDLSYYTTSSS [EMD_Y182_P183T]	1.84	1.01	0.731	0.863	0.967	1.07	1.36	0.908	1.93	0.982	1.21	0.635	0.978	0.64	1.49	0.73
ATVQNYLPKCI [A2M_Y817_L815Q]	0.626	0.346	0.372	0.482	0.369	0.462	0.862	0.362	0.688	0.687	0.489	0.406	0.39	0.581	0.497	0.827
RFLRGYHQDAF [HLA-A_Y137_R138H_YF]	1.66	0.553	0.645	0.622	0.569	0.578	0.886	0.81	0.815	1.33	0.628	0.569	0.591	0.614	0.53	0.935
AVLSLYASGRT [ACTA1_Y145]	1.02	0.702	0.413	0.571	0.489	0.523	1.2	0.461	1.04	0.813	0.699	0.503	0.622	0.731	0.555	0.971
IIWDSYTTNEM [GNB4_Y85_K89E]	1.48	0.54	0.411	0.795	0.747	0.678	1.43	0.57	1.39	0.829	0.903	0.705	0.787	0.752	0.739	0.896
KLVQLYVVCTK [BTK_Y461_G462V]	1.3	0.528	0.45	0.523	0.416	0.565	1.16	0.486	1.2	0.928	0.785	0.584	0.809	1.01	0.482	0.881
RLRIDYERVSQ [DSP_Y1542]	1.08	0.531	0.539	0.613	0.43	0.543	1.46	0.412	1.01	0.742	0.878	0.702	1.25	1.12	0.821	1.07
HNQDDYSYPSR [LDLR_Y845_G844D]	5.73	0.651	0.653	2.52	0.664	0.82	0.856	0.597	0.751	0.776	0.79	0.567	1.2	0.616	0.829	1.29
